Series [1] concerns the target T1, LmFPPS (Leishmania major, UniProt Q4QBL1).
T1 sequence (Q4QBL1 1-362): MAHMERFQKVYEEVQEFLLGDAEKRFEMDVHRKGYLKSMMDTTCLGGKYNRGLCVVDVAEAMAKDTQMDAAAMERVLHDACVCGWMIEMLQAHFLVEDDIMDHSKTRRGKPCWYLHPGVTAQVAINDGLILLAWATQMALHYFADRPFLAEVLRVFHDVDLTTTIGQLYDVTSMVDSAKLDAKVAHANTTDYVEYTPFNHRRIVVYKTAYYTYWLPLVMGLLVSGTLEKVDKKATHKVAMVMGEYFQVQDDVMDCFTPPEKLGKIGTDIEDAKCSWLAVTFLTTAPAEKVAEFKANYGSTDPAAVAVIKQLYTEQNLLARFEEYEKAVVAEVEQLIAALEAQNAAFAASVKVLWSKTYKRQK
Kind of series: SPR, steady-state affinity, protein immobilized on CM5 chip. Type of series: binding. On the technique in general: SPR reads the build-up and loss of mass on a sensor chip optically.

Series [2] deals with the molecule itself. The series is described as follows: crystal structure.

Residue numbers refer to the chain shown, from its start. Numbers in names are those of the source.

What is called Kd is the equilibrium constant for the complex coming apart. A lower Kd goes with a tighter complex. Take `CC(C)=CCC/C(C)=C/COP(=O)(O)OP(=O)(O)O` [GPP]: in series [1], binding was put at a Kd of 0.049 µM.

`CC(C)=CCC/C(C)=C/CC/C(C)=C/CO[P@@](=O)(O)OP(=O)(O)O` [FPP] returned an equilibrium dissociation constant (Kd) in series [1] of 36.6 µM.

B1: E97Y-LmFPPS (Leishmania major farnesyl diphosphate synthase, E97Y mutant) (enzyme)
chain: T1 sequence (Q4QBL1 1-362) with E97Y
B1: the binding result in series [2] is recorded as “binds”.

B2: T164Y-LmFPPS (Leishmania major farnesyl diphosphate synthase, T164Y mutant) (enzyme)
chain: T1 sequence (Q4QBL1 1-362) with T164Y
On to B2, for which, in series [2], the binding result is “binds”.

B3: T164W-LmFPPS (Leishmania major farnesyl diphosphate synthase, T164W mutant) (enzyme)
chain: T1 sequence (Q4QBL1 1-362) with T164W
Take B3: in series [2], the binding result is reported as “binds”.

The values are drawn from publication PMC8049779 (Biochemistry, 2020).
